Laboratory results reported in PMC3448598, “A Role for the CAL1-Partner Modulo in Centromere Integrity and Accurate Chromosome Segregation in Drosophila” (PLoS ONE, 2012).

T1: FLAG-CAL1 (Drosophila, UniProt Q9VEN2 1-979)
T1 construct: Chromosome Alignment 1 (CAL1), Drosophila; The results say the fusion is expressed under the endogenous CAL1 promoter, the methods say under the pCopia promoter; also called FLAG-tagged CAL1; Chromosome Alignment 1; source: Drosophila S2 cells stably expressing FLAG-CAL1, in chromatin-free extract / nuclear (chromatin) extract; not shown: FLAG, N-terminal, kept
T1 sequence (looked up): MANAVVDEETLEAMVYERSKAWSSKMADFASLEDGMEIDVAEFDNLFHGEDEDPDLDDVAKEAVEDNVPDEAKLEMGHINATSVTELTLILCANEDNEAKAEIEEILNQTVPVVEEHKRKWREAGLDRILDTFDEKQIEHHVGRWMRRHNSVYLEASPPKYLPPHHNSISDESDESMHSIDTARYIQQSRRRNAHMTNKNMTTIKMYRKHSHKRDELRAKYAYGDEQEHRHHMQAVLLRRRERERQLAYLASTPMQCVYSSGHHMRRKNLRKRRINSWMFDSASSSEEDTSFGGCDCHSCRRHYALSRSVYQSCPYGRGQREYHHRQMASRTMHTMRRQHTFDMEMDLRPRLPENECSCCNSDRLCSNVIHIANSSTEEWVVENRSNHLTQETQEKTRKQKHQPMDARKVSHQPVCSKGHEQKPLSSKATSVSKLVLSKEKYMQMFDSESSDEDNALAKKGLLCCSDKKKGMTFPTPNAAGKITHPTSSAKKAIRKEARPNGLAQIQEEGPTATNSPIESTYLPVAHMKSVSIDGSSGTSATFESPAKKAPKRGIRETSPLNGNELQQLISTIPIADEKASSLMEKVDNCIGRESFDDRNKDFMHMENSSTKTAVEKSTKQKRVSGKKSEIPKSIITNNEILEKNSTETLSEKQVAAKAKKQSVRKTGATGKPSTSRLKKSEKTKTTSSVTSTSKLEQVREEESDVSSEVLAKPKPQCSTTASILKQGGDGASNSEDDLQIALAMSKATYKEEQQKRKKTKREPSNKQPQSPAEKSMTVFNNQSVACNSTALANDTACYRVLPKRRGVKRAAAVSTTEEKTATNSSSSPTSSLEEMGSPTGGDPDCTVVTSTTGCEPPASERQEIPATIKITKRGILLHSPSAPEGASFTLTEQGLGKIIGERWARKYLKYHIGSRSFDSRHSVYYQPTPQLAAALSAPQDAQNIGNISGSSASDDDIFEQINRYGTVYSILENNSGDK

B1: Modulo (natural protein, Drosophila (endogenous in S2 cells), UniProt P13469 1-542, looked up)
chain: MAQKKAVTVKGKKATNGEEKPLAKRVTKSTKVQEEETVVPQSPSKKSRKQPVKEVPQFSEEDESDVEEQNDEQPGDDSDFETEEAAGLIDDEAEEDEEYNSDDEEDDDDDELEPGEVSKSEGADEVDESDDDEEAPVEKPVSKKSEKANSEKSEENRGIPKVKVGKIPLGTPKNQIVFVTNLPNEYLHKDLVALFAKFGRLSALQRFTNLNGNKSVLIAFDTSTGAEAVLQAKPKALTLGDNVLSVSQPRNKEENNERTVVVGLIGPNITKDDLKTFFEKVAPVEAVTISSNRLMPRAFVRLASVDDIPKALKLHSTELFSRFITVRRISQESISRTSELTLVVENVGKHESYSSDALEKIFKKFGDVEEIDVVCSKAVLAFVTFKQSDAATKALAQLDGKTVNKFEWKLHRFERSTSGRAILVTNLTSDATEADLRKVFNDSGEIESIIMLGQKAVVKFKDDEGFCKSFLANESIVNNAPIFIEPNSLLKHRLLKKRLAIGQTRAPRKFQKDTKPNFGKKPFNKRPAQENGGKSFVKRARF
notes: Modulo, Drosophila nucleolar protein, endogenous in S2 cells; runs as a 75 KDa protein; also called nucleolar protein Modulo; Drosophila nucleolin homolog; source: endogenous, Drosophila S2 cells, in chromatin-free extract / nuclear (chromatin) extract
B2: CAL1 (natural protein, Drosophila (endogenous in S2 cells), UniProt Q9VEN2 1-979, looked up)
chain: T1 sequence (looked up)
notes: Chromosome Alignment 1 (CAL1), Drosophila, endogenous in untransfected S2 cells; runs approximately as a 150 KDa protein; also called Chromosome Alignment 1; source: endogenous, Drosophila S2 cells, in nuclear (chromatin) extract

Columns and labels:
[1] = molecular target: T1, FLAG-CAL1; assay: co-IP; anti-FLAG M2 agarose, 2 h at 4°C, extracts of nuclei from S2 cells stably expressing FLAG-CAL1 and from untagged S2 cells; Western blot with anti-Modulo; quantified with Image J; conditions: partners not purified
[2] = molecular target: B1; assay: co-IP; anti-Modulo antibody coupled to Dynabead Protein-A, 2 h at 4°C, extracts of nuclei from S2 cells; mock IP without antibody; Western blot with anti-CAL1; conditions: partners not purified

| fold enrichment in the FLAG-CAL1 IP over the IP from untagged S2 cells [1] [fold] | fold enrichment in the anti-Modulo IP over the mock IP [2] [fold] | Binder |
| --- | --- | --- |
| 5 |  | B1 |
|  | 8 | B2 |
